Two proteins from PMC5601474, “Radiation damage at the active site of human alanine:glyoxylate aminotransferase reveals that the cofactor position is finely tuned during catalysis” (Scientific Reports, 2017) can be followed below.

Series [1] concerns the molecule itself. Put plainly: crystal structure; orthorhombic crystal P212121 of AGT-Ma holo, hanging drop, 21 °C, PEG 6K 12%, 0.1 M MES pH 5.0; 1.7 Å; 2 molecules (1 dimer) per asymmetric unit.
Series [2] concerns the molecule itself. The series can be described thus: crystal structure; crystal P212121 of AGT-Ma-D183N holo, sitting drop, 21 °C, PEG 10K 17%, 0.1 M Bis-Tris pH 5.5, 0.1 M ammonium acetate; 1.8 Å; eight molecules (4 dimers) per asymmetric unit.

B1: human alanine:glyoxylate aminotransferase major allele, wild type (enzyme)
chain: MASHKLLVTPPKALLKPLSIPNQLLLGPGPSNLPPRIMAAGGLQMIGSMSKDMYQIMDEIKEGIQYVFQTRNPLTLVISGSGHCALEAALVNVLEPGDSFLVGANGIWGQRAVDIGERIGARVHPMTKDPGGHYTLQEVEEGLAQHKPVLLFLTHGESSTGVLQPLDGFGELCHRYKCLLLVDSVASLGGTPLYMDRQGIDILYSGSQKALNAPPGTSLISFSDKAKKKMYSRKTKPFSFYLDIKWLANFWGCDDQPRMYHHTIPVISLYSLRESLALIAEQGLENSWRQHREAAAYLHGRLQALGLQLFVKDPALRLPTVTTVAVPAGYDWRDIVSYVIDHFDIEIMGGLGPSTGKVLRIGLLGCNATRENVDRVTEALRAALQHCPKKKL
modifications: Lys-209 in Schiff base linkage with PLP (internal aldimine); the linkage is photoreduced and broken in the late dataset
notes: alanine:glyoxylate aminotransferase (AGT), human, major allele; also called AGT-Ma; AGT
As for B1, the binding result in series [1] is “binds”.

B2: human alanine:glyoxylate aminotransferase major allele, pathogenic variant D183N (enzyme)
chain: MASHKLLVTPPKALLKPLSIPNQLLLGPGPSNLPPRIMAAGGLQMIGSMSKDMYQIMDEIKEGIQYVFQTRNPLTLVISGSGHCALEAALVNVLEPGDSFLVGANGIWGQRAVDIGERIGARVHPMTKDPGGHYTLQEVEEGLAQHKPVLLFLTHGESSTGVLQPLDGFGELCHRYKCLLLVNSVASLGGTPLYMDRQGIDILYSGSQKALNAPPGTSLISFSDKAKKKMYSRKTKPFSFYLDIKWLANFWGCDDQPRMYHHTIPVISLYSLRESLALIAEQGLENSWRQHREAAAYLHGRLQALGLQLFVKDPALRLPTVTTVAVPAGYDWRDIVSYVIDHFDIEIMGGLGPSTGKVLRIGLLGCNATRENVDRVTEALRAALQHCPKKKL
modifications: Lys-209 in Schiff base linkage with PLP (internal aldimine)
notes: alanine:glyoxylate aminotransferase (AGT), human, major allele, with the pathogenic (primary hyperoxaluria type I) mutation D183N; also called AGT-Ma D183N; AGT-D183N
As for B2, the binding result in series [2] is reported as “binds”.
